Measured values as given in the supplement of paper PMC7877785.
± gives the uncertainty stated by the source.

Test: self-splicing fitness, log relative to wild type (ln ratio); higher = more splicing; Tetrahymena group I intron in knt gene, E. coli kanamycin selection, DiMSum; sequences stand for … in CUCUCU…GGAGGGAAAAGUUAUCAGGCAUGCACCUGGUAGCUAGUCUUUAAACCAAUAGAUUGCAUCGGUUUAAAAGGCAAGACCGUCAAAUUGCGGGAAAGGGGUCAACAGCCGUUCAGUACCAAGUCUCAGGGGAAACUUUGAGAUGGCCUUGCAAAGGGUAUGGUAAUAAGCUGACGGACAUGGUCCUAACCACGCAGCCAAGUCCUAAGUCAACAGAUCUUCUGUUGAUAUGGAUGCAGUUCACAGACUAAAUGUCGGUCGGGGAAGAUGUAUUCUUCUCAUAAGAUAUAGUCGGACCUCUCCUUAAUGGGAGCUAGCGGAUGAAGUGAUGCAACACUGGAGCCGCUGGGAACUAAUUUGUAUGCGAAAGUAUAUUGAUUAGUUUUGGAGUACUCGUGGUCG
Method in brief: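 The eight P1ex-region nucleotides of an intron in the knt kanamycin-resistance gene on pET-22b(+) were all randomised and the library put into E. coli BL21(DE3). Six replicate transformations were grown overnight at 37°C or 30°C on LB agar with or without 25 μg/mL kanamycin, together with 100 μg/mL carbenicillin, 50 μM IPTG and 0.2% rhamnose. Colonies were pooled and amplicon-sequenced on an Illumina HiSeq 2500. Fitness from DiMSum is the error-weighted combination of wild-type-normalised replicate fold changes, kanamycin over none.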

Sequence	self-splicing fitness (ln) (30 °C)	self-splicing fitness (ln) (37 °C)
UUCCAGCAAUAUUACGAUUU	-2.34 ± 0.088	-0.783 ± 0.1
UUCCAGCAAUAUUACGCAUC	-3.6 ± 0.23	-2.2 ± 0.17
UUCCAGCAAUAUUACGCCAU	-3.3 ± 0.19	-2.82 ± 0.25
UUCCAGCAAUAUUACGCCUU	-2.28 ± 0.1	-0.957 ± 0.096
UUCCAGCAAUAUUACGCUAA	-0.0987 ± 0.083	-0.376 ± 0.084
UUCCAGCAAUAUUACGGAGG	-3.51 ± 0.17	-1.03 ± 0.1
UUCCAGCAAUAUUACGGAGU	-4.4 ± 0.42	–
UUCCAGCAAUAUUACGGCAU	-1.79 ± 0.085	-0.66 ± 0.089
UUCCAGCAAUAUUACGGGGA	–	-2.87 ± 0.29
UUCCAGCAAUAUUACGUAUC	-1.29 ± 0.15	-2.83 ± 0.34
UUCCAGCAAUAUUACGUGCA	-1.44 ± 0.1	-1.11 ± 0.087
UUCCAGCAAUAUUACGUUCC	–	-1.84 ± 0.42
UUCGAGCAAUAUUACGAGCA	-1.41 ± 0.16	-0.946 ± 0.15
UUCGAGCAAUAUUACGAUAC	-3.34 ± 0.23	-3.26 ± 0.26
UUCGAGCAAUAUUACGAUAG	-2.73 ± 0.44	-1.77 ± 0.25
UUCGAGCAAUAUUACGAUUG	–	-2.52 ± 0.34
UUCGAGCAAUAUUACGCGGU	-3.26 ± 0.2	-1.17 ± 0.2
UUCGAGCAAUAUUACGCUAA	-2.91 ± 0.29	-1.61 ± 0.17
UUCGAGCAAUAUUACGCUCA	-2.23 ± 0.25	-1.9 ± 0.29
UUCGAGCAAUAUUACGGACG	-1.8 ± 0.18	-1.42 ± 0.24
UUCGAGCAAUAUUACGGAGC	–	-3.16 ± 0.38
UUCGAGCAAUAUUACGGAGG	-4.27 ± 0.34	-1.47 ± 0.24
UUCGAGCAAUAUUACGGCGG	-1.3 ± 0.095	-0.639 ± 0.12
UUCGAGCAAUAUUACGGGUC	-3.03 ± 0.38	-2.89 ± 0.43
UUCGAGCAAUAUUACGGGUU	-3.21 ± 0.22	-2.78 ± 0.35
UUCGAGCAAUAUUACGUACG	-3.15 ± 0.38	–

Sequence	self-splicing fitness (ln) (30 °C)	self-splicing fitness (ln) (37 °C)
UUCGAGCAAUAUUACGUAUC	-3 ± 0.34	-0.649 ± 0.23
UUCGAGCAAUAUUACGUAUG	-2.17 ± 0.13	-2.49 ± 0.19
UUCGAGCAAUAUUACGUCGC	-2.09 ± 0.21	–
UUCGAGCAAUAUUACGUCGU	-3.29 ± 0.33	-1.24 ± 0.21
UUCGAGCAAUAUUACGUCUU	-2.89 ± 0.31	-1.69 ± 0.39
UUCGAGCAAUAUUACGUUUC	-3.44 ± 0.35	-2.37 ± 0.35
UUCUAGCAAUAUUACGAAAA	-1.6 ± 0.14	-0.631 ± 0.13
UUCUAGCAAUAUUACGAAGG	-2.9 ± 0.19	-2.38 ± 0.39
UUCUAGCAAUAUUACGACAG	-1.13 ± 0.22	-1.59 ± 0.32
UUCUAGCAAUAUUACGACCA	-0.559 ± 0.15	-0.269 ± 0.14
UUCUAGCAAUAUUACGAGCG	-0.769 ± 0.066	-0.94 ± 0.072
UUCUAGCAAUAUUACGAGUC	–	-1.86 ± 0.39
UUCUAGCAAUAUUACGAUAU	-2.27 ± 0.34	-1.77 ± 0.3
UUCUAGCAAUAUUACGAUCG	–	-2.02 ± 0.28
UUCUAGCAAUAUUACGCAUA	-0.852 ± 0.12	-0.774 ± 0.14
UUCUAGCAAUAUUACGGAAC	-3.74 ± 0.43	-1.86 ± 0.3
UUCUAGCAAUAUUACGGACA	-0.456 ± 0.097	0.211 ± 0.12
UUCUAGCAAUAUUACGGUGA	-0.462 ± 0.086	-0.28 ± 0.11
UUCUAGCAAUAUUACGUAUG	-3 ± 0.17	-1.8 ± 0.17
UUCUAGCAAUAUUACGUGCC	-3.06 ± 0.36	–
UUCUAGCAAUAUUACGUGGU	-4.03 ± 0.34	-0.962 ± 0.18
UUCUAGCAAUAUUACGUUUA	-1.43 ± 0.16	-1.45 ± 0.12
UUCUAGCAAUAUUACGUUUC	-2.75 ± 0.39	-2.47 ± 0.3
UUGAAGCAAUAUUACGAGAA	-1.9 ± 0.17	-1.7 ± 0.18
UUGAAGCAAUAUUACGAUAA	-0.132 ± 0.23	0.686 ± 0.36
